{"source": "paper PMC5076501", "key": {"calnexin, P27824": {"target": "T1, calnexin, P27824", "T1 chain": "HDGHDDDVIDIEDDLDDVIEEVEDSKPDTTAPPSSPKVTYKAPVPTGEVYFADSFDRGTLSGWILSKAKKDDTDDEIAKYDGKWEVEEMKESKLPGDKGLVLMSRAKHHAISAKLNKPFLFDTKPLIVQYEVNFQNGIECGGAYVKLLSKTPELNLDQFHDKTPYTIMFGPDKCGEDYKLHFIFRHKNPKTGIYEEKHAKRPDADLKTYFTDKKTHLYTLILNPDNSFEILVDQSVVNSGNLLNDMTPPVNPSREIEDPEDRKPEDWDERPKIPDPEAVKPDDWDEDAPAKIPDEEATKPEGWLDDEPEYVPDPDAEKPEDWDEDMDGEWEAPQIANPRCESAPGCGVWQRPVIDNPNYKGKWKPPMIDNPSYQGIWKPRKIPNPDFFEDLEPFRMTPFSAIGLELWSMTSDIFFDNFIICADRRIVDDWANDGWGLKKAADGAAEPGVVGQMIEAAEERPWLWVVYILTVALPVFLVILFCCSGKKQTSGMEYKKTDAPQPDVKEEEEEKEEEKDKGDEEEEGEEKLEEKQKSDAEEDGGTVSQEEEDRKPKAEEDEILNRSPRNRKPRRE", "experiment": "co-immunoprecipitation (anti-GFP IP) with immunoblot densitometry", "conditions": "chain shown with the change; detergent lysates from stably transfected HEK293 cells; three independent experiments; parent: est. 0.73; read off a plot"}, "HSP70-1A, P0DMV8": {"target": "HSP70-1A, P0DMV8", "sequence (P0DMV8 whole entry)": "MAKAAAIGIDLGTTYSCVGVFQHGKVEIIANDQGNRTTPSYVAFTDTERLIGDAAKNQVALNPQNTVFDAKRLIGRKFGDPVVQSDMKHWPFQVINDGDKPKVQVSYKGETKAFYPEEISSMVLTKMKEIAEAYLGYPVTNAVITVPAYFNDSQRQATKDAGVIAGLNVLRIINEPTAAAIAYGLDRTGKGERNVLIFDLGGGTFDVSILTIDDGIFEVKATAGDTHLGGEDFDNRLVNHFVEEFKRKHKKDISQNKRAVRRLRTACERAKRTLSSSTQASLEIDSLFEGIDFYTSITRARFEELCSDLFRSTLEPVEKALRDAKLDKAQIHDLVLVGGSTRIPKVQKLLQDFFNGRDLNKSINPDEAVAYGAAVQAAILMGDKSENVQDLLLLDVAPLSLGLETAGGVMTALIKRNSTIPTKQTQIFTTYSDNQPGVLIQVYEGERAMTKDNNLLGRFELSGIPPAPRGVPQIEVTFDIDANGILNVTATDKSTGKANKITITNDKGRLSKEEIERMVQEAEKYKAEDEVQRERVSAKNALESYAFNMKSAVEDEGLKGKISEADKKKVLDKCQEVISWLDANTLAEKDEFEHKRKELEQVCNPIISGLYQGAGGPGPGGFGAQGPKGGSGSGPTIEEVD", "experiment": "co-immunoprecipitation (anti-GFP IP) with immunoblot densitometry", "conditions": "chain shown with the change; detergent lysates from stably transfected HEK293 cells; three independent experiments; parent: est. 0.32; read off a plot"}}, "data": [{"binder": "YFP-tagged wild-type Drosophila melanogaster dopamine transporter, Q7K4Y6 G108Q (protein) MSPTGHISKSKTPTPHDNDNNSISDERETWSGKVDFLLSVIGFAVDLANVWRFPYLCYKNGGGAFLVPYGIMLVVGGIPLFYMELALGQHNRKGAITCWGRLVPLFKQIGYAVVLIAFYVDFYYNVIIAWSLRFFFASFTNSLPWTSCNNIWNTPNCRPFESQNASRVPVIGNYSDLYAMGNQSLLYNETYMNGSSLDTSAVGHVEGFQSAASEYFNRYILELNRSEGIHDLGAIKWDMALCLLIVYLICYFSLWKGISTSGKVVWFTALFPYAVLLILLIRGLTLPGSFLGIQYYLTPNFSAIYKAEVWVDAATQVFFSLGPGFGVLLAYASYNKYHNNVYKDALLTSFINSATSFIAGFVIFSVLGYMAHTLGVRIEDVATEGPGLVFVVYPAAIATMPASTFWALIFFMMLLTLGLDSSFGGSEAIITALSDEFPKIKRNRELFVAGLFSLYFVVGLASCTQGGFYFFHLLDRYAAGYSILVAVFFEAIAVSWIYGTNRFSEDIRDMIGFPPGRYWQVCWRFVAPIFLLFITVYGLIGYEPLTYADYVYPSWANALGWCIAGSSVVMIPAVAIFKLLSTPGSLRQRFTILTTPWRDQQSMAMVLNGVTTEVTVVRLTDTETAKEPVDV", "values": [{"measurement": "response (integrated density (chaperones/DAT))", "setting": "calnexin, P27824", "value": 1.7}, {"measurement": "response (integrated density (chaperones/DAT))", "setting": "HSP70-1A, P0DMV8", "value": 0.73}]}]}
